Test results taken from publication PMC8256705, “Putative hexameric glycosyltransferase functional unit revealed by the crystal structure of Acinetobacter baumannii MurG” (IUCrJ, 2021).

How the values were obtained:
[1] = target: the molecule itself; experiment: SEC-MALS; highly oligomeric SEC peak; Superdex 200 10/300, 20 mM Tris-HCl pH 8.0, 150 mM NaCl, 0.4 ml/min, 25°C
[2] = target: the molecule itself; experiment: SEC-MALS; dimer-sized SEC peak; Superdex 200 10/300, 20 mM Tris-HCl pH 8.0, 150 mM NaCl, 0.4 ml/min, 25°C

B1: MurG from Acinetobacter baumannii (abMurG), full length, wild type (enzyme, UniProt A3M9Y1 1-365, looked up)
chain: MTDSQQSKPKHVMMMAAGTGGHVFPALAVAKQLQQQGCQVSWLATPTGMENRLLKDQNIPIYQIDIQGVRGNGVIRKLAAPFKILKATFSAMRYMKQLKVDAVAGFGGYVAGPGGLAARLLGIPVLIHEQNAVAGFTNAQLSRVAKVVCEAFPNTFPASEKVVTTGNPVRREITDILSPKWRYDEREQADKPLNILIVGGSLGAKALNERLPPALKQLEVPLNIFHQCGQQQVEATQALYADAPANLTIQVLPFIEDMAKAYSEADLIICRAGALTVTEVATAGVAAVFVPLPIAVDDHQTANAKFLADIGAAKICQQSTMTPEVLNQLFTTLMNRQLLTEMAVKARQHAQPNATQHVVDLIQKM
notes: MurG glycosyltransferase of Acinetobacter baumannii, full length, amino acids Met1-Met365 (365 amino acids); Theoretical mass with the C-terminal His tag is printed as 39.4 kDa; Found as a dimer and as a hexamer in solution; only the large-size SEC peak crystallized; also called wild-type abMurG; source: E. coli BL21 (DE3), purified (nickel-nitrilotriacetic acid resin, SEC); not shown: His tag, …
[1]
  stoichiometry N: 6
[2]
  stoichiometry N: 2
